In publication PMC3936774:

Experiments:
Experiment in all cases: fluorescence polarization
Ec Hfq Q95W = Ec Hfq Q95W (Escherichia coli, UniProt P0A6X3 1-102, Q95W)
Ec Hfq Y83W = Ec Hfq Y83W (Escherichia coli, UniProt P0A6X3 1-102, Y83W)
Ec Hfq G77W = Ec Hfq G77W (Escherichia coli, UniProt P0A6X3 1-102, G77W)
Hfq WT = Hfq WT (Escherichia coli, UniProt P0A6X3 1-102)
Ec Hfq R17W = Ec Hfq R17W (Escherichia coli, UniProt P0A6X3 1-102, R17W)
Sa Hfq Q31W = Sa Hfq Q31W (Staphylococcus aureus, UniProt A0A0H3JV59 1-77, Q31W)
Ec Hfq F39W = Ec Hfq F39W (Escherichia coli, UniProt P0A6X3 1-102, F39W)
Ec Hfq Q33W = Ec Hfq Q33W (Escherichia coli, UniProt P0A6X3 1-102, Q33W)
Ec Hfq Y25W = Ec Hfq Y25W (Escherichia coli, UniProt P0A6X3 1-102, Y25W)
Sa Hfq F25W = Sa Hfq F25W (Staphylococcus aureus, UniProt A0A0H3JV59 1-77, F25W)
Ec Hfq F11W = Ec Hfq F11W (Escherichia coli, UniProt P0A6X3 1-102, F11W)
Ec Hfq K31W = Ec Hfq K31W (Escherichia coli, UniProt P0A6X3 1-102, K31W)
Sa Hfq WT = Sa Hfq WT (Staphylococcus aureus, UniProt A0A0H3JV59 1-77)

UUUUUU (ssRNA) [U6 (fluorescein)]
Kd (Ec Hfq Q95W): 848 ± 289 nM | Kd (Ec Hfq Y83W): 778 ± 254 nM | Kd (Ec Hfq G77W): 380 ± 93.2 nM | Kd (Hfq WT): 766 ± 73.7 nM | Kd (Ec Hfq R17W): 1600 ± 80 nM | Kd (Sa Hfq Q31W): 114 ± 23.2 nM | Kd (Ec Hfq F39W): 2000 ± 400 nM | Kd (Ec Hfq Q33W): 405 ± 182 nM | Kd (Ec Hfq Y25W): 837 ± 62.5 nM | Kd (Sa Hfq F25W): 41.9 ± 25.1 nM | Kd (Ec Hfq F11W): 503 ± 55.5 nM | Kd (Ec Hfq K31W): 1120 ± 73 nM | binding result (Sa Hfq WT): binds
